Measurements: publication PMC6677920 (2019)

Target: recombinant bovine respiratory syncytial virus fusion (F) protein, purified (bovine respiratory syncytial virus, UniProt P22167 26-513)
Experiment: SPR

B1: hybrid Fab B4* (B4 HC/B13 LC) (Fab, V domains shown)
VH: QVQLQESGPSLVKPSQTLSLTCTVSGFSLSSYSVSWVRQAPGKTLEWLGDASNGGIIYYNPALKSRLGITRDNSKSQVSLSLNTITPEDTATYYCAKCSVGDSGSYACTGRKGEYVDAWGQGLLVTVSS
VL: QAVLTQPPSVSGSLGQRVSITCSGSSDNIGIFAVGWYQQVPGSGLRTIIYGNTKRPSGVPDRFSGSKSGNTATLTINSLQAEDEADYFCVCGESKSATPVFGGGTTLTVL
Q: With B1 as the binder, how does the Kd read?
A: Its Kd is about 12 µM.
